The values that follow come from US20110045534A1.

Sequences and labels used below:
B1: anti-MRPL11 rabbit IgG expressed from the L-2A-H cassette (antibody)
light: QVLTQTPSPVSAAVGNTVTINCQASQSVRDNNYLSWYQQKPGQPPKLLIYRASTLESGVPSRFKGNGSGTQFTLTISDLECDDAATYYCQGGYGGNFFPFGGGTEVVVKGDPVAPTVLIFPPAADQVATGTVTIVCVANKYFPDVTVTWEVDGTTQTTGIENSKTPQNSADCTYNLSSTLTLTSTQYNSHKEYTCKVTQGTTSVVQSFNRGDCEGRGSLLTCGDVEENPG
heavy: QSVEESGGRLVKPDETLTITCTVSGIDLNNNAMGWVRQAPGEGLEYIGFIGGSGATYYSTWAKGRFTISKSSTTVDLMITSPTTEDTATYFCARYAGSGSFDFSGPGTLVTVSLGQPKAPSVFPLAPCCGDTPSSTVTLGCLVKGYLPEPVTVTWNSGTLTNGVRTFPSVRQSSGLYSLSSVVSVTSSSQPVTCNVAHPATNTKVDKTVAPSTCSKPTCPPPELLGGPSVFIFPPKPKDTLMISRTPEVTCVVVDVSQDDPEVQFTWYINNEQVRTARPPLREQQFNSTIRVVSTLPIAHQDWLRGKEFKCKVHNKALPAPIEKTISKARGQPLEPKVYTMGPPREELSSRSVSLTCMINGFYPSDISVEWEKNGKAEDNYKTTPAVLDSDGSYFLYSKLSVPTSEWQRGDVFTCSVMHEALHNHYTQKSISRSPGK
B2: anti-MRPL11 rabbit IgG expressed from the H-2A-L cassette (antibody)
heavy: QSVEESGGRLVKPDETLTITCTVSGIDLNNNAMGWVRQAPGEGLEYIGFIGGSGATYYSTWAKGRFTISKSSTTVDLMITSPTTEDTATYFCARYAGSGSFDFSGPGTLVTVSLGQPKAPSVFPLAPCCGDTPSSTVTLGCLVKGYLPEPVTVTWNSGTLTNGVRTFPSVRQSSGLYSLSSVVSVTSSSQPVTCNVAHPATNTKVDKTVAPSTCSKPTCPPPELLGGPSVFIFPPKPKDTLMISRTPEVTCVVVDVSQDDPEVQFTWYINNEQVRTARPPLREQQFNSTIRVVSTLPIAHQDWLRGKEFKCKVHNKALPAPIEKTISKARGQPLEPKVYTMGPPREELSSRSVSLTCMINGFYPSDISVEWEKNGKAEDNYKTTPAVLDSDGSYFLYSKLSVPTSEWQRGDVFTCSVMHEALHNHYTQKSISRSPGKEGRGSLLTCGDVEENPG
light: QVLTQTPSPVSAAVGNTVTINCQASQSVRDNNYLSWYQQKPGQPPKLLIYRASTLESGVPSRFKGNGSGTQFTLTISDLECDDAATYYCQGGYGGNFFPFGGGTEVVVKGDPVAPTVLIFPPAADQVATGTVTIVCVANKYFPDVTVTWEVDGTTQTTGIENSKTPQNSADCTYNLSSTLTLTSTQYNSHKEYTCKVTQGTTSVVQSFNRGDC
B3: anti-MRPL11 rabbit IgG expressed from two separate vectors (H + L positive control) (antibody)
heavy: B1 heavy
light: B2 light

“And” between values parts separate entries of the source, which are not always exact repeats. Identical values can stand only once.

In the first assay the target is immunizing peptide for ERK2p. Kind of assay: ELISA on coated peptide; supernatant 1/10. On the technique in general: In an ELISA, binding on a coated surface is turned into a signal by an enzyme label.
Turning to B1, the absorbance (OD 450 nm) was 0.0621 OD450 and 0.0483 OD450.

For B2, the absorbance (OD 450 nm) was 0.0478 OD450 and 0.0482 OD450.

B3 registered an absorbance (OD 450 nm) of 0.0629 OD450.

Another assay concerns the target immunizing peptide for SUZ12. The assay can be described thus: ELISA on coated peptide; supernatant 1/10.
Consider B1, for which the absorbance (OD 450 nm) is 0.0486 OD450 and 0.0529 OD450.

As to B2, the absorbance (OD 450 nm) was 0.0461 OD450 and 0.0445 OD450.

Consider B3, for which the absorbance (OD 450 nm) amounted to 0.0485 OD450.

The target of another assay is immunizing peptide for MRPL11. Kind of assay: ELISA on coated peptide; supernatant 1/10.
B1: the absorbance (OD 450 nm) was 1.14 OD450 and 0.99 OD450.

On to B2, for which the absorbance (OD 450 nm) was 0.972 OD450 and 1.04 OD450.

B3 yielded an absorbance (OD 450 nm) of 1.01 OD450.

A further assay deals with immunizing peptide for ERK2p. The assay can be described thus: ELISA on coated peptide; supernatant 1x.
Consider B1, for which the absorbance (OD 450 nm) was 0.0663 OD450 and 0.0671 OD450.

As to B2, the absorbance (OD 450 nm) was 0.0534 OD450 and 0.0524 OD450.

B3 returned an absorbance (OD 450 nm) of 0.0575 OD450.

A further assay addresses immunizing peptide for SUZ12. Kind of assay: ELISA on coated peptide; supernatant 1x.
Regarding B1, the absorbance (OD 450 nm) was 0.0542 OD450 and 0.0585 OD450.

Take B2: the absorbance (OD 450 nm) is 0.0487 OD450 and 0.0489 OD450.

On to B3, for which the absorbance (OD 450 nm) turned out to be 0.0474 OD450.

In a further assay the target is immunizing peptide for MRPL11. Kind of assay: ELISA on coated peptide; supernatant 1x.
As for B1, the absorbance (OD 450 nm) is 0.973 OD450 and 0.998 OD450.

Take B2: the absorbance (OD 450 nm) was 1.01 OD450 and 1.06 OD450.

The molecule B3 came in with an absorbance (OD 450 nm) of 0.971 OD450.
